Assay results reported in US9976167B2, “Group of glycosyltransferases and use thereof” (Shanghai Institutes For Biological Sciences, Chinese …, priority 2012, dated 2018).

Experiments:
[1] = system: osteoclasts; details: cited from earlier work
[2] = system: prostate cancer cells; details: cited from earlier work
[3] = Glycosyltransfering reaction with crude enzyme, substrate PPD; assay type: biochemical; details: crude enzyme: lysate supernatant of recombinant E. coli; UDP-glucose, 35° C., 12 hrs; TLC
Method: (§1) The lysate supernatant of the recombinant yeasts expressing the empty vector was used as control.
(§2) The reaction was conducted under 35° C. for 12 hrs, then stopped by adding 100 μL of butanol. The product were extracted, dried in vacuum, and dissolved in methanol.
(§3) The reaction products were first detected by thin layer chromatography (TLC).
(§4) The converted products of gGT25 were further identified by HPLC (FIG. 10 and FIG. 11). The retention time of peak 2 was identical to that of the CK standard sample; the retention time of peak 3 was identical to that of PPD. […] Peak 1, also present in the profile of the negative control, indicated its irrelevance to the conversion of PPD. 3 peaks were shown in FIG. 11, the retention time of peak 1 was identical to that of F1 standard sample and peak 3 was identical to that of PPT. […] Peak 2, also present in the profile of the negative control, indicated its irrelevance to the conversion of PPT.
(§5) According to the method as in Example 4, the cell lysate of recombinant yeasts expressing gGT13 and gGT30 were used to catalyze PPD and PPT.
The cell lysis supernatant of the recombinant E. coli was used as crude enzyme to conduct the glycosyltransfering reaction, and the reaction condition was identical to that of Example 4.
The reaction was conducted under 35° C. for 12 hrs. 100 μL of butanol was added to stop the reaction and the products were extracted. Upon vacuum drying, the product was dissolved by methanol. TLC was first used to detect the reaction product.
(§6) The glycosyltransfering reactions of ginsenosides and ginsengenins were catalyzed by using the lysis supernatant of the recombinant yeasts expressing 3GT1, 3GT2, 3GT3 and 3GT4 as crude enzymes. The lysis supernatant of recombinant E. coli expressing empty vectors was used as control. The 100 μL reaction system is shown as Table 3. The reaction was conducted under 35° C. for 12 hrs, then stopped by adding 100 μL of butanol. The product were extracted, dried in vacuum, and dissolved in methanol.
The reaction was conducted under 35° C. for 12 hrs, and then stopped by adding 100 μL of butanol. The product were extracted, dried in vacuum, and dissolved in methanol. The reaction products were first detected by thin layer chromatography (TLC) (FIG. 35).

[4] = Glycosyltransfering reaction with crude enzyme, substrate 25-OH-PPD; assay type: biochemical; details: 35° C., 12 hrs, TLC; for glycosylation of C3-OH of 25-OH-PPD (product 3-O-β-(D-glucopyranosyl)-25-OH-PPD): crude enzyme of Example 11; for substrate that could be catalyzed: 25-OH-PPD: crude enzyme: lysate supernatant of recombinant E. coli, UDP-glucose
Method: as §6

[5] = Glycosyltransfering reaction with crude enzyme, substrate PPT; assay type: biochemical; details: crude enzyme of Example 11; 35° C., 12 hrs; TLC
Method: as §1, §2, §3, §4, §5, §6

[6] = as above; assay type: biochemical; details: crude enzyme: lysate supernatant of recombinant E. coli; UDP-glucose, 35° C., 12 hrs; TLC
[7] = Glycosyltransfering activities on ginsengenins and saponins: glycosylation site and specificity (summary); assay type: biochemical; details: for glycosylation site: C-3: Table 2, tetracyclic triterpenoid substrates; for substrate spectrum / specificity: comparison of 3GT1, 3GT2, 3GT3 and 3GT4, Table 6; for effect of the steric configuration of the hydroxyl or glycosyl at C20 on catalytic activity: 20(S)-type versus 20(R)-type substrates
Method: More than 100 predicted cDNA sequences of glycosyltransferases were extracted from the published expression profile data of the Panax plant. 60 cDNAs with full length were cloned, expressed, and subjected to the analysis of glycosyltransfering reaction.
as §1, §2, §6
The lysate supernatant of the recombinant yeast expressing empty vectors was used as control. The reaction was conducted under 35° C. for 12 hrs, and then stopped by adding 100 μL of butanol. The product were extracted, dried in vacuum, and dissolved in methanol.
The glycosyltransfering reactions of ginsenosides Rh2 and F2 were catalyzed by using the lysate supernatant of the recombinant yeasts expressing 3GT1, 3GT2, 3GT3 and 3GT4 as crude enzymes. The 100 μL reaction system is shown as Table 3. The reaction was conducted under 35° C. for 12 hrs, and then stopped by adding 100 μL of butanol. The product were extracted, dried in vacuum, and dissolved in methanol.

[8] = Glycosyltransfering reaction with crude enzyme, substrate CK; assay type: biochemical; details: 35° C., 12 hrs, TLC; for glycosylation of C3-OH of CK (product F2): crude enzyme of Example 11; for substrate that could be catalyzed: CK: crude enzyme: lysate supernatant of recombinant E. coli, UDP-glucose
Method: as §5, §6

[9] = Glycosyltransfering reaction with crude enzyme, substrate DM; assay type: biochemical; details: 35° C., 12 hrs, TLC; for glycosylation of C3-OH of DM (product 3-O-β-(D-glucopyranosyl)-Dammarenediol II): crude enzyme of Example 11; for substrate that could be catalyzed: DM: crude enzyme: lysate supernatant of recombinant E. coli, UDP-glucose
Method: as §1, §2, §3, §6

[10] = Glycosyltransfering reaction with crude enzyme, substrate F1; assay type: biochemical; details: 35° C., 12 hrs, TLC; for glycosylation of C3-OH of F1 (product 3-O-β-(D-glucopyranosyl)-F1): crude enzyme of Example 11; for substrate that could be catalyzed: F1: crude enzyme: lysate supernatant of recombinant E. coli, UDP-glucose
Method: as §5
The lysis supernatant of recombinant E. coli expressing empty vectors was used as control. The 100 μL reaction system is shown as Table 3. The reaction was conducted under 35° C. for 12 hrs, then stopped by adding 100 μL of butanol. The product were extracted, dried in vacuum, and dissolved in methanol.

[11] = Glycosyltransfering reaction with crude enzyme, substrate lanosterol; assay type: biochemical; details: 35° C., 12 hrs, TLC; for glycosylation of C3-OH of lanosterol (product 3-O-β-(D-glucopyranosyl)-lanosterol): crude enzyme of Example 11; for substrate that could be catalyzed: lanosterol: crude enzyme: lysate supernatant of recombinant E. coli, UDP-glucose
Method: as §6

[12] = Glycosyltransfering reaction with crude enzyme, substrate 20(R)-PPD; assay type: biochemical; details: 35° C., 12 hrs, TLC; for catalysis of 20(R)-PPD (product 20(R)-ginsenoside Rh2): crude enzyme of Example 11; for substrate that could be catalyzed: 20(R)-PPD: crude enzyme: lysate supernatant of recombinant E. coli, UDP-glucose

Molecule: CC(C)=CCC[C@@](C)(O)[C@H]1CC[C@]2(C)[C@@H]1[C@H](O)C[C@@H]1[C@@]3(C)CC[C@H](O[C@@H]4O[C@H](CO)[C@@H](O)[C@H](O)[C@H]4O)C(C)(C)[C@@H]3CC[C@]12C [R-type ginsenoside Rh2, 3-O-β-(D-glucopyranosyl)-20(R)-protopanaxadiol]
- cytotoxicity to osteoclasts [1]: without any cytotoxicity
- inhibition of the generation of osteoclasts [1]: selectively inhibit
- inhibition of prostate cancer cells [2]: quite poor

B1: 3GT3: glycosyltransferase protein with 497 amino acids, SEQ ID NO.: 41; homology with a Medicago truncatula glycosyltransferase higher than 99% (protein, listed as Medicago truncatula)
chain: MEGVEVEQPLKVYFIPFLASGHMIPLFDIATMFASRGQQVTVITTPANAKSLTKSLSSDAPSFLRLHTVDFPSQQVGLPEGIESMSSTTDPTTTWKIHTGAMLLKEPIGDFIENDPPDCIISDSTYPWVNDLADKFQIPNITFNGLCLFAVSLVETLKTNNLLKSQTDSDSDSSSFVVPNFPHHITLCGKPPKVIGIFMGMMLETVLKSKALIINNFSELDGEECIQHYEKATGHKVWHLGPTSLIRKTAQEKSERGNEGAVNVHESLSWLDSERVNSVLYICFGSINYFSDKQLYEMACAIEASGHPFIWVVPEKKGKEDESEEEKEKWLPKGFEERNIGKKGLIIRGWAPQVKILSHPAVGGFMTHCGGNSTVEAVSAGVPMITWPVHGDQFYNEKLITQFRGIGVEVGATEWCTSGVAERKKLVSRDSIEKAVRRLMDGGDEAENIRLRAREFGEKAIQAIQEGGSSYNNLLALIDELKRSRDLKRLRDLKLDD
modifications: 3GT3
- substrate that could be catalyzed: PPD [3]: ✓
- glycosylation of C3-OH of 25-OH-PPD (product 3-O-β-(D-glucopyranosyl)-25-OH-PPD) [4]: could be glycosylated
- substrate that could be catalyzed: 25-OH-PPD [4]: ✓
- glycosylation of C3-OH of PPT (product 3-O-β-(D-glucopyranosyl)-PPT) [5]: could be glycosylated
- substrate that could be catalyzed: PPT [6]: ✓
- glycosylation site: C-3 [7]: ✓
- substrate spectrum / specificity [7]: least number of substrates
- glycosylation of C3-OH of CK (product F2) [8]: further glycosylating its C3-OH

B2: 3GT2: glycosyltransferase protein with 495 amino acids, SEQ ID NO.: 24; homology with UGT73C12 of Barbarea vulgaris higher than 99% (protein, listed as Barbarea vulgaris)
chain: MVSEITHKSYPLHFVLFPFMAQGHMIPMVDIARLLAQRGVKITIVTTPHNAARFKNVLSRAIESGLPISIVQVKLPSQEAGLPEGNETLDSLVSMELMIHFLKAVNMLEEPVQKLFEEMSPQPSCIISDFCLPYTSKIAKKFNIPKILFHGMCCFCLLCMHILRKNREIVENLKSDKEHFVVPYFPDRVEFTRPQVPVATYVPGDWHEITEDMVEADKTSYGVIVNTYQELEPAYANDYKEARSGKAWTIGPVSLCNKVGADKAERGNKADIDQDECLKWLNSKEEGSVLYVCLGSICNLPLSQLKELGLGLEESQRPFIWVIRGWEKNKELHEWFSESGFEERIKDRGLLIKGWAPQMLILSHHSVGGFLTHCGWNSTLEGLTAGLPLLTWPLFADQFCNEKLAVQVLKAGVSAGVDQPMKWGEEEKIGVLVDKEGVKKAVEELMGESDDAKEIRRRAKELGELAHKAVEEGGSSHSNITSLLEDIMQLAQSNN
modifications: 3GT2
- glycosylation of C3-OH of DM (product 3-O-β-(D-glucopyranosyl)-Dammarenediol II) [9]: could be glycosylated
- substrate that could be catalyzed: DM [9]: ✓
- substrate that could be catalyzed: PPD [3]: ✓
- glycosylation of C3-OH of 25-OH-PPD (product 3-O-β-(D-glucopyranosyl)-25-OH-PPD) [4]: could be glycosylated
- substrate that could be catalyzed: 25-OH-PPD [4]: ✓
- glycosylation of C3-OH of F1 (product 3-O-β-(D-glucopyranosyl)-F1) [10]: could be glycosylated
- substrate that could be catalyzed: F1 [10]: ✓
- glycosylation of C3-OH of lanosterol (product 3-O-β-(D-glucopyranosyl)-lanosterol) [11]: could be glycosylated
- substrate that could be catalyzed: lanosterol [11]: ✓
- glycosylation of C3-OH of PPT (product 3-O-β-(D-glucopyranosyl)-PPT) [5]: could be glycosylated
- substrate that could be catalyzed: PPT [6]: ✓
- effect of the steric configuration of the hydroxyl or glycosyl at C20 on catalytic activity [7]: not affected
- glycosylation site: C-3 [7]: ✓
- substrate spectrum / specificity [7]: most number of substrates
- glycosylation of C3-OH of CK (product F2) [8]: further glycosylating its C3-OH
- substrate that could be catalyzed: CK [8]: ✓
- catalysis of 20(R)-PPD (product 20(R)-ginsenoside Rh2) [12]: could catalyze
- substrate that could be catalyzed: 20(R)-PPD [12]: ✓

B3: 3GT1: glycosyltransferase protein with 495 amino acids, SEQ ID NO.: 22; homology with UGT73C10 of Barbarea vulgaris higher than 99% (protein, listed as Barbarea vulgaris)
chain: MVSEITHKSYPLHFVLFPFMAQGHMIPMVDIARLLAQRGVKITIVTTPHNAARFENVLSRAIESGLPISIVQVKLPSQEAGLPEGNETFDSLVSTKLLVPFFKAVNMLEEPVQKLFEEMSPQPSCIISDFCLPYTSKIAKKFNIPKILFHGMCCFCLLCMHVLRKNREILENLKSDKEHFVVPYFPDRVEFTRPQVPLATYVPGEWHEIKEDMVEADKTSYGVIVNTYQELEPAYANGYKEARSGKAWTIGPVSLCNKVGADKAERGNKADIDQDECLKWLDSKEEGSVLYVCLGSICSLPLSQLKELGLGLEESQRPFIWVVRGWEKNKELLEWFSESGFEERVKDRGLLIKGWSPQMLILAHHSVGGFLTHCGWNSTLEGITSGVPLLTWPLFGDQFCNQKLVVQVLKVGVSAGVEEVTNWGEEEKIGVLVDKEGVKKAVEELMGESDDAKEIRKRVKELGQLAHKAVEEGGSSHSNITSLLEDIMQLAQPNN
modifications: 3GT1
- glycosylation of C3-OH of DM (product 3-O-β-(D-glucopyranosyl)-Dammarenediol II) [9]: could be glycosylated
- substrate that could be catalyzed: DM [9]: ✓
- substrate that could be catalyzed: PPD [3]: ✓
- glycosylation of C3-OH of 25-OH-PPD (product 3-O-β-(D-glucopyranosyl)-25-OH-PPD) [4]: could be glycosylated
- substrate that could be catalyzed: 25-OH-PPD [4]: ✓
- glycosylation of C3-OH of F1 (product 3-O-β-(D-glucopyranosyl)-F1) [10]: could be glycosylated
- substrate that could be catalyzed: F1 [10]: ✓
- glycosylation of C3-OH of lanosterol (product 3-O-β-(D-glucopyranosyl)-lanosterol) [11]: could be glycosylated
- substrate that could be catalyzed: lanosterol [11]: ✓
- glycosylation of C3-OH of PPT (product 3-O-β-(D-glucopyranosyl)-PPT) [5]: could be glycosylated
- substrate that could be catalyzed: PPT [6]: ✓
- effect of the steric configuration of the hydroxyl or glycosyl at C20 on catalytic activity [7]: not affected
- glycosylation site: C-3 [7]: ✓
- substrate spectrum / specificity [7]: most number of substrates
- glycosylation of C3-OH of CK (product F2) [8]: further glycosylating its C3-OH
- substrate that could be catalyzed: CK [8]: ✓
- catalysis of 20(R)-PPD (product 20(R)-ginsenoside Rh2) [12]: could catalyze
- substrate that could be catalyzed: 20(R)-PPD [12]: ✓
